Patent US20220227882A1 (TRUSTEES OF TUFTS COLLEGE, published 2022)

Legend:
R431A = biological target: T1, R431A (Homo sapiens, UniProt P78325); assay: high-throughput flow cytometry, HEK293 cells with mutant ADAM8, high stringency; range in parentheses
T1 construct: expressed on HEK293 cells; also called human ADAM8 point mutant R431A
T1 sequence (ADAM8, looked up): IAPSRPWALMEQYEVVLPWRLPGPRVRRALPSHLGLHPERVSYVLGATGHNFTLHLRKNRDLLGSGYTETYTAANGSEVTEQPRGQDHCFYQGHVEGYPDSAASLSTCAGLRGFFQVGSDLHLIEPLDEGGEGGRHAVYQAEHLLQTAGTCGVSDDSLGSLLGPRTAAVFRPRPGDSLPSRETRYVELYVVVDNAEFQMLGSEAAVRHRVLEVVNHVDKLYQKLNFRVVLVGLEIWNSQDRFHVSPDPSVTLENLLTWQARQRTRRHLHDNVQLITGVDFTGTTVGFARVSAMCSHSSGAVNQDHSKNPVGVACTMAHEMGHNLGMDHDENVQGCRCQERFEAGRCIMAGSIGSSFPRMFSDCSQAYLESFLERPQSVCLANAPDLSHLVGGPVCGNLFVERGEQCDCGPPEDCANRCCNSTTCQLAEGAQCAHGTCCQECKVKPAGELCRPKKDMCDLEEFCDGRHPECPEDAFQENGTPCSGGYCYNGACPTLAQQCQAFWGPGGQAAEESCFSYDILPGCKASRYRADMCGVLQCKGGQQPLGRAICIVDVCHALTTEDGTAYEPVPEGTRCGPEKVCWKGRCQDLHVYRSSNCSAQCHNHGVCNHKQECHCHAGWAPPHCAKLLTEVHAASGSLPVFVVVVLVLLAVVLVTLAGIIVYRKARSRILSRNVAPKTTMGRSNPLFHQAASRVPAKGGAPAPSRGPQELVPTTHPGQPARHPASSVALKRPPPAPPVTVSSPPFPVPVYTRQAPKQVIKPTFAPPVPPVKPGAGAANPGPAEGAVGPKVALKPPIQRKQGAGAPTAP
In short: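 HEK293 cells expressing WT or alanine-mutant ADAM8 were stained for 60 min with ADP2 Fab (0.50 μg/ml) or ADP13 Fab (5.00 μg/ml) in PBS with 10% goat serum under high-stringency conditions. Detection used an Alexa Fluor 488 secondary, with mean cellular fluorescence measured by high-throughput flow cytometry in duplicate.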

R482A = biological target: T2, R482A (Homo sapiens, UniProt P78325); assay: high-throughput flow cytometry, HEK293 cells with mutant ADAM8, high stringency; range in parentheses; closed box
T2 construct: expressed on HEK293 cells; also called human ADAM8 point mutant R482A
T2 sequence (ADAM8, looked up): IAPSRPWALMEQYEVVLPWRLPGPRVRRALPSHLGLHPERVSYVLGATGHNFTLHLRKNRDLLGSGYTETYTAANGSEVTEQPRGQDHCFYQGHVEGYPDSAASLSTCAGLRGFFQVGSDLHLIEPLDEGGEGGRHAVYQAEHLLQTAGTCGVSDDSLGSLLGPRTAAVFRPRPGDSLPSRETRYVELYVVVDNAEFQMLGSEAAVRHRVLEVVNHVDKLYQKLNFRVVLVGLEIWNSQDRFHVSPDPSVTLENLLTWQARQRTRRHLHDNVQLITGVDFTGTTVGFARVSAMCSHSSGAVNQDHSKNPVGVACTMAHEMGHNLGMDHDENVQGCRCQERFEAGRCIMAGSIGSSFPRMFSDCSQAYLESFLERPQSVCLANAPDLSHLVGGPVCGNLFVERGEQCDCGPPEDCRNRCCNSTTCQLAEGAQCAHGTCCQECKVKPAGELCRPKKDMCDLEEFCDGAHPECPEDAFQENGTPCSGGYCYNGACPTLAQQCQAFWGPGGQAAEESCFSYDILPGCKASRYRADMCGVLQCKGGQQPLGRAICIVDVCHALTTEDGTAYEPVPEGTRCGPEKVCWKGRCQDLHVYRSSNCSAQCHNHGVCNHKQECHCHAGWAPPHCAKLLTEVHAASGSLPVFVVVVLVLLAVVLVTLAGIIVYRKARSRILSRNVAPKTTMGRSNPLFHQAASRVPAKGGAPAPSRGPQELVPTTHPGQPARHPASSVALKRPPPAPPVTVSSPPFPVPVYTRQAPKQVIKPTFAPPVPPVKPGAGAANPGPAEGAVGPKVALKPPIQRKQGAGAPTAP
Protocol: A variety of experimental parameters were optimized for high-throughput flow cytometry including blocking buffer, and primary and secondary antibody concentrations, to identify the optimal conditions for screening. Through these studies ADP2 and ADP13 were determined to be high affinity binding antibodies.
Thus, for these studies antigen-binding fragments (Fabs) of ADP2 and ADP13, which bind with lower affinity than the full antibody, were generated. In addition, higher binding stringency conditions were tested, such as increased pH, salinity, and temperature, and/or increased washing, to weaken binding sufficiently to allow identification of critical binding residues in flow cytometry. The final experimental flow cytometry conditions were: primary antibody incubation with ADP2 Fab (0.50 μg/ml), ADP13 Fab (5.00 μg/ml) and Control Ab (0.16 μg/ml) for 60 minutes in flow cytometry buffer containing 10% goat serum in PBS (Ca²⁺ and Mg²⁺ free). […] Samples were washed three times after primary antibody incubation and twice after secondary antibody incubation with PBS (Ca²⁺ and Mg′ free). Next, HEK293 cells expressing WT or mutated ADAM8 proteins or EV DNA were incubated with ADP2 or ADP13 Fabs or Control Ab at their optimal concentrations. Fab binding was detected using Alexa Fluor 488-conjugated secondary antibodies and mean cellular fluorescence determined using the Intellicyt iQue flow cytometry platform. […] This counter-screen strategy facilitates the exclusion of mutants that are locally misfolded or that have an expression defect. Binding of each test Fab to each mutant clone in the alanine scanning library was determined, in duplicate, by high-throughput flow cytometry.

B1: ADP13 Fab (Fab, V domains shown)
VH: EVQLQQSGPEMVKPGTSVKISCKASGYTFTDYYINWVKQSHGKSLEWIGDISPNIGGATYNPKFKGKAILTVDKSARTAYMELRSLTSEDSAVYCCTRGGSSYPYFYAMDYWGQGTSVTVSS
VL: DIVMSQSPSSLAVSVGEKVTMSCKSSQSLLYSSNQKKYLAWYQQKPGQSPKLLIYWASTRESGVPDRFTGSGSGTDFTLTISSVKAEDLAVYYCQQFYSYPYTFGGGTKLEINR
B1 was tested, and the “Binding Reactivity (% WT)” value (R431A) was 79.6 % WT and the “Binding Reactivity (% WT)” value (R482A) was 8.3 % WT.
